For this test, the target named is T1, ATAD2 (human, UniProt Q6PL18 1-1390, limits assumed).
T1 sequence (looked up): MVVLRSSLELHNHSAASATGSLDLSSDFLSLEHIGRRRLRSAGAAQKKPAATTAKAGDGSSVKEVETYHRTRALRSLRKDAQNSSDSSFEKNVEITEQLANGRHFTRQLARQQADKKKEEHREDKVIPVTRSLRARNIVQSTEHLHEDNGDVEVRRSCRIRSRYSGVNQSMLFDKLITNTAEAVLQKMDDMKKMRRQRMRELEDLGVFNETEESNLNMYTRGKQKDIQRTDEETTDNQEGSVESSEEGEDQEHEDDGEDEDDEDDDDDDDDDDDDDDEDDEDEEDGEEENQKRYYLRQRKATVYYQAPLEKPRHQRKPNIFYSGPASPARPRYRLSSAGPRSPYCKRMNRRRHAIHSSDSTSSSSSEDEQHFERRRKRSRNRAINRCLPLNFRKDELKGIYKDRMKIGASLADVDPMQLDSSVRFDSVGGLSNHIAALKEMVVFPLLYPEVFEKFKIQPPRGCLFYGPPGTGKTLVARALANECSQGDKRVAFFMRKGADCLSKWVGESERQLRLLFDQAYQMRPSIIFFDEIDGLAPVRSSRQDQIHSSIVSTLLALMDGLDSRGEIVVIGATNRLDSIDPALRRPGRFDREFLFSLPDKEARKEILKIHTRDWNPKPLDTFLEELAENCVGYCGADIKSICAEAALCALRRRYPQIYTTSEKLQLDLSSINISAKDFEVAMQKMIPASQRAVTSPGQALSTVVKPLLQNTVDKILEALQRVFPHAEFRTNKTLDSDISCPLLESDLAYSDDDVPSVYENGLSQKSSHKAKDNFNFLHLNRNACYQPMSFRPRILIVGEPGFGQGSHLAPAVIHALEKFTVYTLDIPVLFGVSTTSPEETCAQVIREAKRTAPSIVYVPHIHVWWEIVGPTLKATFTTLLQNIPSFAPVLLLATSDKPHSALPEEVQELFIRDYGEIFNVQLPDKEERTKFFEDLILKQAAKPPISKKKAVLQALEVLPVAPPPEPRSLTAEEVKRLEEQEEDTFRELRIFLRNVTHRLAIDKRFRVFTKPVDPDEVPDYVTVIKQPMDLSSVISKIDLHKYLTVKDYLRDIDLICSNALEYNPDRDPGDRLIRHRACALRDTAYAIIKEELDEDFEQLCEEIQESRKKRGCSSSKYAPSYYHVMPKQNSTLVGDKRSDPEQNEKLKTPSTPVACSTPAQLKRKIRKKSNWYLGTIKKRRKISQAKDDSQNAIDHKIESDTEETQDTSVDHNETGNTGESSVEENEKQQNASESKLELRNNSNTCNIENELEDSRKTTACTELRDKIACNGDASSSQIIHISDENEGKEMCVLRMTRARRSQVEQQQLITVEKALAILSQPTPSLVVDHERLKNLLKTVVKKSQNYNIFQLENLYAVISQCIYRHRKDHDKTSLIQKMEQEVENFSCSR
In words: IP/MS, LZTR1 R810W-FLAG, U87. A digest of the protocol: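 Gel slices were reduced with 5 mM DTT, alkylated with 11 mM IAA and digested overnight at 37° C. with trypsin. Peptides were analysed on an Orbitrap Fusion Tribrid by LC-MS/MS.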

B1: LZTR1 R810W-FLAG (other, human, UniProt Q8N653 1-840, looked up)
chain: MAGPGSTGGQIGAAALAGGARSKVAPSVDFDHSCSDSVEYLTLNFGPFETVHRWRRLPPCDEFVGARRSKHTVVAYKDAIYVFGGDNGKTMLNDLLRFDVKDCSWCRAFTTGTPPAPRYHHSAVVYGSSMFVFGGYTGDIYSNSNLKNKNDLFEYKFATGQWTEWKIEGRLPVARSAHGATVYSDKLWIFAGYDGNARLNDMWTIGLQDRELTCWEEVAQSGEIPPSCCNFPVAVCRDKMFVFSGQSGAKITNNLFQFEFKDKTWTRIPTEHLLRGSPPPPQRRYGHTMVAFDRHLYVFGGAADNTLPNELHCYDVDFQTWEVVQPSSDSEVGGAEVPERACASEEVPTLTYEERVGFKKSRDVFGLDFGTTSAKQPTQPASELPSGRLFHAAAVISDAMYIFGGTVDNNIRSGEMYRFQFSCYPKCTLHEDYGRLWESRQFCDVEFVLGEKEECVQGHVAIVTARSRWLRRKITQARERLAQKLEQEAAPVPREAPGVAAGGARPPLLHVAIREAEARPFEVLMQFLYTDKIKYPRKGHVEDVLLIMDVYKLALSFQLCRLEQLCRQYIEASVDLQNVLVVCESAARLQLSQLKEHCLNFVVKESHFNQVIMMKEFERLSSPLIVEIVRRKQQPPPRTPLDQPVDIGTSLIQDMKAYLEGAGAEFCDITLLLDGHPRPAHKAILAARSSYFEAMFRSFMPEDGQVNISIGEMVPSRQAFESMLRYIYYGEVNMPPEDSLYLFAAPYYYGFYNNRLQAYCKQNLEMNVTVQNVLQILEAADKTQALDMKRHCLHIIVHQFTKVSKLPTLWSLSQQLLLDIIDSLASHISDKQCAELGADI
notes: Stably expressed in U87 cells by lentivirus; also called LZTR1-FLAG-R810W; LZTR1 RW; not shown: FLAG tag
On to B1, for which the binding result is given as “binds”.

(Values after patent US20250262210A1 (TRUSTEES OF COLUMBIA UNIVERSITY IN THE CITY OF NEW YORK, published 2025).)
